# From patent US9623039B2, “Treatment and prevention of pathological conditions using iduna related techniques and compositions” (VALTED, LLC, priority 2010, dated 2017)
# B1: Iduna: novel NMDA-induced cell survival protein, PAR-dependent E3 ligase; 359 amino acids (protein)
# chain: MEMAGCGEIDHSINMLPTNKKANESCSNTAPSLTVPECAICLQTCVHPVSLPCKHVFCYLCVKGASWLGKRCALCRQEIPEDFLDKPTLLSPEELKAASRGNGEYAWYYEGRNGWWQYDERTSRELEDAFSKGKKNTEMLIAGFLYVADLENMVQYRRNEHGRRRKIKRDIIDIPKKGVAGLRLDCDTNTVNLARESSADGADSGSAQTGASVQLAVPSSTRPLTSVDGQLTSPVTPSPDAGISLEDSFAHLQLSGDSIAERSHRGEGEEDHESPSSGRVPDTSVEETESDASSDSEDAPVVVAQHSLTQQRPLVPNGNQTVADQSDRSGTDRSVAGGGTMSVNVRSRRPDGQCTVIEV
# Experiments:
# [1] = Middle cerebral artery occlusion; type: in vivo, mouse
# Protocol: Middle Cerebral Artery Occlusion (MCAD): To occlude the middle cerebral artery, mice were anesthetized with 1.5-2% isoflurane and maintained at normothermic temperature. A 7-0 monofilament with an enlarged silicone tip was passed through the right internal carotid artery to the base of the middle cerebral artery. Occlusion was confirmed by laser-Doppler flowmetry with a probe placed on thinned skull over the lateral parietal cortex. After 60 min of occlusion, the filament was removed and reperfusion was verified. At 24 h of reperfusion, the brain was harvested, sectioned into five coronal slabs, and stained with the vital dye, triphenyltetrazolium chloride. Infarct area was measured on the anterior and posterior surfaces of each slab and integrated to obtain infarct volume with correction for tissue swelling. The investigator performing the surgery and analyzing infarct size was unaware of the genotype of the mouse.
# Neurobehavioural Activity: Spontaneous motor activity was evaluated for 5 min by placing the animals in a mouse cage for 5 minutes. […] Neurological deficits were evaluated by an observer blinded to the treatment and genotype of the animals with a scale of 0-4 (0 no neurological deficit, 4 severe neurological deficit). […] Recordings were evaluated by an observer blinded to the treatment and genotype of the animals. […]
# [2] = system: MCF7 cells; assay: Determination of apurinic/apyrimidinic (AP) sites; type: cell-based, human; conditions: 1 h
# Protocol: Determination of apurinic/apyrimidinic (AP) sites. The amount of AP sites in genomic DNA was monitored by a DNA damage quantification kit (BioVision). Briefly, cells were treated with either DMSO or 500 μM MNNG for 15 min, and then replaced with normal growth media. After 1 h, cells were scraped and harvested at 500×g for 5 min and washed once with PBS. Genomic DNA was isolated using a Biovision Genomic DNA Isolation Kit (BioVision) and then AP sites on the 0.5 μg of genomic DNA was labeled with biotin by the Aldehyde Reactive Probe (ARP) reagent (supplied with the DNA damage quantification kit) for 1 h at 37° C. To precipitate the biotin-tagged DNA, sample was mixed with TE buffer containing 2% glycogen and then sequentially incubated with ice cold 70% ethanol for 30 min at −20° C. […] To determine of the number of AP sites in DNA, samples were dissolved in TE buffer and then transferred into 96 well plate with DNA binding buffer (supplied with the DNA damage quantification kit). After 12 h, samples were washed five times with DNA washing buffer (supplied with the DNA damage quantification kit) and then biotin labeled AP sites were quantified using an avidin-biotin assay. Each sample and standards (supplied with a DNA damage quantification kit) were run in triplicate and the OD was measured at 650 nm using a 96-well plate reader (SpectraMax Plus384 Microplate Reader).
# [3] = system: cytochrome c; assay: Cytochrome c release after NMDA excitotoxicity; type: cell-based, mouse; conditions: NMDA 500 μM for 5 min, 4 hrs
# Protocol: FIG. 53—Immunoblot showing release of CYT C. Mouse cortical neurons over-expressing GFP, GFP-Iduna or GFP-Iduna-YRAA were subjected to NMDA-excitotoxicity (500 μM for 5 min) on DIV 14. Following subcellular fractionation into mitochondrial and cytosolic (post-mitochondrial) fractions, CYT C release was monitored 4 hrs following NMDA stimulation. COX IV was used as a marker for mitochondria and GAPDH was used a marker for cytosol. Data were repeated three times with similar results.
# FIG. 54—Quantification of cytochrome c release from mitochondria following NMDA-toxicity. […] Values of optical density were quantified using Image J software and the data were normalized to the values of GAPDH in the cytosol.
# [4] = system: cortical neurons; assay: MNNG-induced cell death in cortical neurons; type: cell-based, mouse; conditions: MNNG 50 μM for 15 min
# Protocol: Primary Neuronal Culture Preparation: Primary cortical cell cultures were prepared from gestational day 15 mouse embryos as previously described. Experiments were performed at DIV (day in vitro) 14. Under these conditions, neurons represent 90% of the cells in the culture. Mature neurons were washed with control salt solution (CSS) containing 120 mM NaCl, 5.4 mM KCl, 1.8 mM CaCl2, 25 mM Tris-HCl pH 7.4 and 15 mM D-glucose. To induce NMDA-mediated […], 50 μM NMDA and 10 μM glycine in CSS solution was applied to the cells for 5 min, then the cells were washed and re-supplemented with minimum essential medium containing 10% horse serum. […]
# Cell Death Assessment: Following exposure of neuronal cultures to the various treatments neuronal survival was quantified and presented as percent of cell death. Percent cell death was determined as the ratio of live-to-dead cells compared with the percent cell death in control wells to account for cell death attributable to mechanical stimulation of the cultures. Quantification of neuronal survival was determined by staining treated cultures with 5 μM Hoechst 33342 and 2 μM propidium iodide (PI) (Invitrogen, Carlsbad, Calif.). […] The numbers of total and dead (PI positive) cells were counted by automated computer assisted software (Axiovision 4.6, Zeiss, Germany). […]
# [5] = system: PARP-1; assay: PARP inhibition assay (32P-NAD incorporation into PAR polymer); type: biochemical; conditions: 32P-NAD incorporation into radiolabeled PAR polymer
# Protocol: Because PARP-1 activation plays a prominent role in NMDA excitotoxicity we tested whether PARP-1 activity is directly affected by Iduna. PARP-1 activity was assessed by incorporation of biotinylated PAR onto histone proteins.
# PARP Inhibition Assay: To evaluate the ability of Iduna to act as a PARP inhibitor, [^32P]-labeled automodified PARP-1 was synthesized in presence of GST, GST-Iduna or PARG, respectively. To purify the [^32P]-labeled automodified PARP-1, the reaction mixture was incubated with anti-PAR antibody for 4 h at 4° C. and then sequentially incubated with protein-G slurry for 1 h at 4° C. Samples were washed two times with PBS and the amount of [^32P]-labeled automodified PARP-1 was measured by LS 6500 Liquid Scintillation Counting System.
molecule,measurement,setting,value
B1,reduction of infarct volume,"[1]; Iduna transgenic mice vs wild type, 60 min occlusion",50%
same,neurological function following stroke,[1]; Iduna-Tg mice vs WT,improved neurological function
same,increase in AP sites after MNNG,[2],completely prevented
same,cytochrome c translocation from mitochondria to the cytoplasm,[3],reduction of cytochrome c translocation from mitochondria to the cytoplasm
same,protection against MNNG-induced cell death,[4],protects neuronal cultures against MNNG-induced cell death
same,PARP-1 catalytic activity,[5],fails to inhibit PARP-1 catalytic activity
